Results reported in article PMC12616241.

How the values were obtained:
[1] = biological target: FcγRIIIa on NK cells (human (endogenous in NK cells)) (UniProt P08637)
[2] = biological target: FcγRIIIa on NK cells (human (endogenous in NK cells)) (UniProt P08637); test: flow cytometry on cells; purified human NK cells incubated on ice with titrated monomeric antibody (0.03–10 µg/mL), detected with anti-F(ab′)2-Alexa Fluor 647

Chain of FcγRIIIa on NK cells (human (endogenous in NK cells)) (P08637 17-208): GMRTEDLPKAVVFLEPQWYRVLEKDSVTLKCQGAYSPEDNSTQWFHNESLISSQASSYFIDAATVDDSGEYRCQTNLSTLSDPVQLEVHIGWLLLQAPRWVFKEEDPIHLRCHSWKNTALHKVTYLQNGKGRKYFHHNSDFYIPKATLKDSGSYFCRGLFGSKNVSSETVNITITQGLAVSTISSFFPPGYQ

- fold decrease in EC50 of NK cell-mediated ADCC (LDH release, 4 h, 10:1) against CAL51, compared with IgG1-GM and IgG1-DE [1]: 100 fold
- fold decrease in EC50 of NK cell-mediated ADCC (LDH release, 4 h, 10:1) against CAL51, compared with IgG1-WT [1]: 4000 fold
- fold greater KD than IgG1-WT (so in the source); stronger binding is meant [2]: 100 fold
Substance: anti-FRα IgG1-DE/GM (MOv18 variable regions, human IgG1 with S239D and I332E, glycomodified) (antibody)
